Reference: patent publication US20040110287A1, “Multi-step method for the differentiation of insulin positive, glucose responsive cells” (ES Cell International Pte Ltd., priority 2002, published 2004)

Test system: pdx1+ cells
Assay: Expansion of pdx1+ cells in non-adherent clusters of human pancreatic duct cells
Format: cell-based
Procedure: Pancreatic duct cells were isolated from human donor tissue, using the methods described in detail in Example 2. The cells were plated as non-adherent cell clusters in DMEM-F12 (pH 7.4), 2 mM glutamine, 1% penicillin-streptomycin, 2% B27 (Life Sciences Technologies) and 8 mM HEPES. Following 1-4 days in culture, the media was changed to DMEM-F12 (pH 6.9-7.1), 2 mM glutamine, 1% penicillin-streptomycin, and 2% B27 (Life Sciences Technologies). This media was supplemented with the following four factors: dexamethasone (10^−7-10^−9 M), forskolin (10 μM), insulin (20 μg/ml) and FGF-18 (20 ng/ml). The media was optionally supplemented with heparin which is often used to enhance the effects of FGF. The cells were cultured for a number of days in this supplemented media which was changed daily.
Following approximately one day in culture, Pdx1+ cells (a marker of pancreatic progenitor cells) began appearing on the surface of the non-adherent clusters. The size and number of Pdx1+ cells continues to increase for approximately 12 days. Following 8 to 12 days in culture under expansion conditions, non-adherent cell clusters containing an increased number of Pdx1+ cells were subjected to a differentiation protocol to produce insulin+, glucose responsive cell clusters.
This effect on pdx1 expression was further augmented if the follistatin-related factor follistatin or a combination of follistatin and the GLP-1 agonist exendin-4 was added to the above list of factors used to supplement the acidic culture medium. Briefly, cultures expanded in forskolin (a cAMP elevating agent), dexamethasone (a corticosteroid), insulin, FGF18 (a FGF family member), heparin (known to potentiate the activity of FGF family members), and follistatin (a follistatin-related factor) contained approximately 281 fold more pdx1+ cells than cells differentiated in the absence of the expansion protocol. […]

B1: follistatin (protein, UniProt P19883 30-344, looked up)
Follistatin: GNCWLRQAKNGRCQVLYKTELSKEECCSTGRLSTSWTEEDVNDNTLFKWMIFNGGAPNCIPCKETCENVDCGPGKKCRMNKKNKPRCVCAPDCSNITWKGPVCGLDGKTYRNECALLKARCKEQPELEVQYQGRCKKTCRDVFCPGSSTCVVDQTNNAYCVTCNRICPEPASSEQYLCGNDGVTYSSACHLRKATCLLGRSIGLAYEGKCIKAKSCEDIQCTGGKKCLWDFKVGRGRCSLCDELCPDSKSDEPVCASDNATYASECAMKEAACSSGVLLEVKHSGSCNSISEDTEEEEEDEDQDYSFPISSILEW
4 days basal medium, 4 days acidic expansion medium, before differentiation
  fold more pdx1+ cells than cells differentiated in the absence of the expansion protocol: approximately 281 fold
FIG. 5
  fold increase in total islet equivalents (IEs) versus multistep differentiation protocol alone: 281 fold
FIG. 6 and FIG. 7, added to expansion medium
  pdx1 expression versus expansion medium alone: increase in pdx1 expression
